In the supplement of paper PMC11246515:
± gives the standard deviation of the averaged measurements.

Experiment: total protein half-life in vivo (active degradation + dilution); higher = more stable protein
[1] = E. coli NCM3722 delta-clpP delta-lon delta-hslV, growth: N-lim chemostat, doubling time 6 h
[2] = E. coli NCM3722 delta-clpP, growth: N-lim chemostat, doubling time 6 h
[3] = E. coli NCM3722 delta-hslV, growth: N-lim chemostat, doubling time 6 h
[4] = E. coli NCM3722 delta-lon, growth: N-lim chemostat, doubling time 6 h
[5] = E. coli NCM3722 delta-smpB, growth: N-lim chemostat, doubling time 6 h
[6] = wild type E. coli NCM3722, growth: C-lim chemostat, doubling time 3 h
[7] = wild type E. coli NCM3722, growth: C-lim chemostat, doubling time 6 h
[8] = wild type E. coli NCM3722, growth: C-lim chemostat, doubling time 12 h
[9] = wild type E. coli NCM3722, growth: N-lim chemostat, doubling time 6 h
[10] = wild type E. coli NCM3722, growth: N-lim chemostat, doubling time 12 h
[11] = wild type E. coli NCM3722, growth: P-lim chemostat, doubling time 6 h
[12] = wild type E. coli NCM3722, growth: P-lim chemostat, doubling time 12 h

| Sequence | total protein half-life in vivo [1] [h] | total protein half-life in vivo [2] [h] | total protein half-life in vivo [3] [h] | total protein half-life in vivo [4] [h] | total protein half-life in vivo [5] [h] | total protein half-life in vivo [6] [h] | total protein half-life in vivo [7] [h] | total protein half-life in vivo [8] [h] | total protein half-life in vivo [9] [h] | total protein half-life in vivo [10] [h] | total protein half-life in vivo [11] [h] | total protein half-life in vivo [12] [h] |
| --- | --- | --- | --- | --- | --- | --- | --- | --- | --- | --- | --- | --- |
| MLELNFSQTLGNHCLTINETLPANGITAIFGVSGAGKTSLINAISGLTRPQKGRIVLNGRVLNDAEKGICLTPEKRRVGYVFQDARLFPHYKVRGNLRYGMSKSMVDQFDKLVALLGIEPLLDRLPGSLSGGEKQRVAIGRALLTAPELLLLDEPLASLDIPRKRELLPYLQRLTREINIPMLYVSHSLDEILHLADRVMVLENGQVKAFGALEEVWGSSVMNPWLPKEQQSSILKVTVLEHHPHYAMTALALGDQHLWVNKLDEPLQAALRIRIQASDVSLVLQPPQQTSIRNVLRAKVVNSYDDNGQVEVELEVGGKTLWARISPWARDELAIKPGLWLYAQIKSVSITA | 5.74 ± 0.84 | 6.32 ± 1.6 | 6.25 ± 0.98 | 5.26 ± 0.55 | 5.04 ± 0.092 | 2.76 ± 0.18 | 5.77 ± 0.64 | 11 ± 1.2 | 5.676 ± 0.014 | 10.2 ± 1.3 | 6.12 ± 0.077 |  |
| MLEMLMQWYRRRFSDPEAIALLVILVAGFGIIFFFSGLLAPLLVAIVLAYLLEWPTVRLQSIGCSRRWATSIVLVVFVGILLLMAFVVLPIAWQQGIYLIRDMPGMLNKLSDFAATLPRRYPALMDAGIIDAMAENMRSRMLTMGDSVVKISLASLVGLLTIAVYLVLVPLMVFFLLKDKEQMLNAVRRVLPRNRGLAGQVWKEMNQQITNYIRGKVLEMIVVGIATWLGFLLFGLNYSLLLAVLVGFSVLIPYIGAFVVTIPVVGVALFQFGAGTEFWSCFAVYLIIQALDGNLLVPVLFSEAVNLHPLVIILSVVIFGGLWGFWGVFFAIPLATLIKAVIHAWPDGQIAQE [P0AFI9] | > 8 |  |  |  | > 8 | > 4 | 6.12 ± 0.64 | 12.2 ± 0.49 |  | 10.4 ± 1.8 |  |  |
| MLEQMGIAAKQASYKLAQLSSREKNRVLEKIADELEAQSEIILNANAQDVADARANGLSEAMLDRLALTPARLKGIADDVRQVCNLADPVGQVIDGGVLDSGLRLERRRVPLGVIGVIYEARPNVTVDVASLCLKTGNAVILRGGKETCRTNAATVAVIQDALKSCGLPAGAVQAIDNPDRALVSEMLRMDKYIDMLIPRGGAGLHKLCREQSTIPVITGGIGVCHIYVDESVEIAEALKVIVNAKTQRPSTCNTVETLLVNKNIADSFLPALSKQMAESGVTLHADAAALAQLQAGPAKVVAVKAEEYDDEFLSLDLNVKIVSDLDDAIAHIREHGTQHSDAILTRDMRNAQRFVNEVDSSAVYVNASTRFTDGGQFGLGAEVAVSTQKLHARGPMGLEALTTYKWIGIGDYTIRA | 5.127 ± 0.031 | 4.65 ± 0.2 | 4.64 ± 0.14 | 4.75 ± 0.29 | 4.5 ± 0.067 | 3.12 ± 0.3 | 5.68 ± 0.2 | 10.9 ± 0.47 | 4.65 ± 0.12 | 7.82 ± 0.18 | 5.31 ± 0.65 | 12.15 ± 0.096 |
| MLFTIQLIIILICLFYGARKGGIALGLLGGIGLVILVFVFHLQPGKPPVDVMLVIIAVVAASATLQASGGLDVMLQIAEKLLRRNPKYVSIVAPFVTCTLTILCGTGHVVYTILPIIYDVAIKNNIRPERPMAASSIGAQMGIIASPVSVAVVSLVAMLGNVTFDGRHLEFLDLLAITIPSTLIGILAIGIFSWFRGKDLDKDEEFQKFISVPENREYVYGDTATLLDKKLPKSNWLAMWIFLGAIAVVALLGADSDLRPSFGGKPLSMVLVIQMFMLLTGALIIILTKTNPASISKNEVFRSGMIAIVAVYGIAWMAETMFGAHMSEIQGVLGEMVKEYPWAYAIVLLLVSKFVNSQAAALAAIVPVALAIGVDPAYIVASAPACYGYYILPTYPSDLAAIQFDRSGTTHIGRFVINHSFILPGLIGVSVSCVFGWIFAAMYGFL [P0ABN9] | 7.71 | 5.98 ± 1.5 | 5.58 ± 0.66 |  |  |  |  |  | 6.04 ± 0.11 | 12.9 ± 1.5 |  | > 16 |
| MLIFEGKEIETDTEGYLKESSQWSEPLAVVIAENEGISLSPEHWEVVRFVRDFYLEFNTSPAIRMLVKAMANKFGEEKGNSRYLYRLFPKGPAKQATKIAGLPKPVKCI [P0AB18] | 4.6 ± 0.063 | 3.82 ± 0.21 | 4.08 ± 0.12 | 6.01 ± 1.2 | 4.08 ± 0.076 | 2.84 ± 0.18 | 5.35 ± 0.47 | 12.8 ± 2.9 | 3.49 ± 0.44 | 6.82 ± 0.45 | 4.73 ± 0.007 | 10.19 ± 0.053 |
| MLIGYVRVSTNDQNTDLQRNALNCAGCELIFEDKISGTKSERPGLKKLLRTLSAGDTLVVWKLDRLGRSMRHLVVLVEELRERGINFRSLTDSIDTSTPMGRFFFHVMGALAEMERELIVERTKAGLETARAQGRIGGRRPKLTPEQWAQAGRLIAAGTPRQKVAIIYDVGVSTLYKRFPAGDK |  | 6.3 |  |  |  |  |  | 5.3 | 6.47 |  | 6.11 | 12.2 ± 1.1 |
| MLIIETLPLLRQQIRRLRMEGKRVALVPTMGNLHDGHMKLVDEAKARADVVVVSIFVNPMQFDRPEDLARYPRTLQEDCEKLNKRKVDLVFAPSVKEIYPNGTETHTYVDVPGLSTMLEGASRPGHFRGVSTIVSKLFNLVQPDIACFGEKDFQQLALIRKMVADMGFDIEIVGVPIMRAKDGLALSSRNGYLTAEQRKIAPGLYKVLSSIADKLQAGERDLDEIITIAGQELNEKGFRADDIQIRDADTLLEVSETSKRAVILVAAWLGDARLIDNKMVELA | 5.42 ± 0.33 | 5.17 ± 0.93 | 4.941 ± 0.045 | 5.34 ± 0.1 | 4.98 ± 0.26 | 3.1 ± 0.28 | 5.5 ± 0.056 | 11.8 ± 2.4 | 4.868 ± 0.016 | 8.38 ± 0.16 | 5.774 ± 0.017 | 12.5 ± 0.45 |
| MLIIKRSVAIIAILFSPLSTASNLTSQLHNFFSAQLAGVSDEVRVSIRTAPNLLPPCEQPLLSMSNNSRLWGNVNVLARCGNDKRYLQVNVQATGNYVVAAMPIARGGKLEAGNVKLKRGRLDTLPPRTVLDINQLVDAISLRDLSPDQPIQLTQFRQAWRVKAGQRVNVIASGDGFSANAEGQALNNAAVAQNARVRMVSGQVVSGVVDADGNILINL |  |  |  |  |  | 0.905 ± 0.37 |  | 2.23 |  |  |  |  |
